Substitutions are numbered along the chain they refer to. In names and notes the source's numbering stands.
B1: MBP-Mgm101 (wild-type fusion of maltose-binding protein with Mgm101 lacking the mitochondrial targeting signal) (natural protein, yeast, UniProt P32787 23-269, looked up)
chain: VVSTGTSNTATAGAVRKSFNSTETKPVFATKSEAGNGSHMKEYSSGINSKLGGTPLETRSTADDSLNNSYKQVKGDIDWYTSWYGLGMKPFEAKVQKDLIEPLDPKDIEIKPDGLIYLPEIKYRRILNKAFGAGGWGLVPRSQTIVTSKLVTREYGLICHGQLISVARGEQDYFNEAGIPTATEGCKSNALMRCCKDLGVGSELWDPVFIKKFKVDHCTEKFVEHVTTKRKKKIWLRKDRQVEYPYK
B2: MBP-Mgm101^W257A (natural protein, yeast, UniProt P32787 23-269, looked up)
chain: B1 chain with W235A
B3: MBP-Mgm101^K253A (natural protein, yeast, UniProt P32787 23-269, looked up)
chain: B1 chain with K231A
B4: MBP-Mgm101^(K251-K253)A (natural protein, yeast, UniProt P32787 23-269, looked up)
chain: B1 chain with K229A, R230A, K231A
B5: Mgm101^(K251-K253)A (tag-free) (natural protein, yeast, UniProt P32787 23-269, looked up)
chain: B1 chain with K229A, R230A, K231A
B6: Mgm101^K253A (tag-free) (natural protein, yeast, UniProt P32787 23-269, looked up)
chain: B1 chain with K231A
B7: Mgm101^Y139A (tag-free) (natural protein, yeast, UniProt P32787 23-269, looked up)
chain: B1 chain with Y117A
B8: MBP-Mgm101^Y268A (natural protein, yeast, UniProt P32787 23-269, looked up)
chain: B1 chain with Y246A

Target: the molecule itself
Assay: SEC

Binding result, binds:
B1
B2
B3
B4
B5
B6
B7
B8
